Laboratory results: patent US20050232925A1, “Protease activity of thrombin inhibits angiogenesis” (priority 2002, published 2005)

Assays:
[1] = test system: HUVEC cells; assay: In vitro angiogenesis (matrigel tube formation) assay; type: cell-based, human; conditions: in the absence of plasma; rt-PA 1 μg/ml, captopril 0.1 μM
Description: In Vitro Angiogenesis (matrigel tube formation) Assay. Unpolymerized matrigel (7 mg/ml) was placed in the wells (100 μl/well) of a pre-chilled 48-well cell culture plate and then incubated at 37° C. for 30-45 minutes. HUVEC cells were harvested in trypsin and resuspended in EC medium (4×10^4 in 300 μl). Cells were treated with the different agents before plated onto the matrigel-coated plates. […] Microphotographs of the center of each well at low power (40×) were taken with a SPOT camera (Diagnostic Instruments Inc; Sterling Heights, Mich.) and the aid of an imaging capture software (Compix Inc Imaging Systems; Township, Pa.). The microphotographs were quantitatively analyzed (total tube length) with the Simple PCI imaging analysis software (Compix).
Matrigel tube formation assays. Samples collected from the purification process were exchanged into 1×PBS and reconstituted into 1× concentration (by volume) compared to the input tPA/captopril-treated plasma. They were tested in the matrigel tube formation assays at 10% (v/v) as follows. […] Tube formation was examined (4× magnification) through an inverted phase contrast microscope (Nikon Corporation; Tokyo, Japan) and recorded by a Spot RT camera (Diagnostic Instruments Inc; Sterling Heights, Mich.) using an automated image capture software (Compix Inc Imaging Systems; Township, Pa.).

[2] = test system: 4T1 murine breast cancer cell line; assay: Primary tumor growth of transfected 4T1 cells in BALB/c mice; type: in vivo; conditions: stable expression in 4T1 cells, mammary pad of BALB/c mice, vs empty vector, five weeks
Excerpt: Construction of mutant uPA clones and cell transfection. We chose to pursue a genetic approach, in which we stably transfected an aggressive and highly metastatic murine breast cancer cell line (4T1) with the genes for wild type uPA, tPA and a receptor binding mutant of uPA (uPAm). We inserted the cDNA encoding murine tPA into pcDNA 3.1 (+) (Invitrogen), a CMV driven mammalian expression vector, by restriction enzyme digestion of BamHI and NheI. Wild type uPA cDNA was inserted to the pcDNA 3.1 (+) expression vector and the transfected into 4T1 cells in a similar fashion as described for the tPA cDNA. Residues 22, 27, 29 and 30 on the growth factor domain of the murine uPA molecule have been implicated in binding to mouse uPAR.
The pcDNA 3.1-tPA, pcDNA 3.1-wild type uPA, pcDNA 3.1-uPAm constructs, as well as an empty vector control were introduced into 4T1 cells by transfection using lipofectamine (Gibco-BRL) reagent. We selected 12-14 stable single clones in each group with 500 ug/mL of hygromycin. Each of the clones was evaluated for generation of the gene of interest by northern blot. The clones that had the highest generation of the genes of interest were selected. […]
Experiments using transfected tumor cells. […] Primary tumor size was measured every other day for a total of five weeks using calipers and calculated using the standard formula (width2×length×0.52). […]

Row | Molecule | inhibition of tube formation [1] | inhibition of primary tumor growth [2]
1 | rt-PA: rt-PA (Genentech), recombinant tissue plasminogen activator; called tPA in Example 2 (protein, UniProt P00750 36-562, looked up, alteplase) Tissue-type plasminogen …: SYQVICRDEKTQMIYQQHQSWLRPVLRSNRVEYCWCNSGRAQCHSVPVKSCSEPRCFNGGTCQQALYFSDFVCQCPEGFAGKCCEIDTRATCYEDQGISYRGTWSTAESGAECTNWNSSALAQKPYSGRRPDAIRLGLGNHNYCRNPDRDSKPWCYVFKAGKYSSEFCSTPACSEGNSDCYFGNGSAYRGTHSLTESGASCLPWNSMILIGKVYTAQNPSAQALGLGKHNYCRNPDGDAKPWCHVLKNRRLTWEYCDVPSCSTCGLRQYSQPQFRIKGGLFADIASHPWQAAIFAKHRRSPGERFLCGGILISSCWILSAAHCFQERFPPHHLTVILGRTYRVVPGEEEQKFEVEKYIVHKEFDDDTYDNDIALLQLKSDSSRCAQESSVVRTVCLPPADLQLPDWTECELSGYGKHEALSPFYSERLKEAHVRLYPSSRCTSQHLLNRTVTDNMLCAGDTRSGGPQANLHDACQGDSGGPLVCLNDGRMTLVGIISWGLGCGQKDVPGVYTKVTNYLDWIRDNMRP | did not cause significant inhibition of tube formation | 
2 | tPA: murine tPA expressed from pcDNA 3.1 in 4T1 cells (not the rt-PA drug) (protein, UniProt P11214 33-559, looked up) Tissue-type plasminogen …: SYRATCRDEPTQTTYQQHQSWLRPMLRSSRVEYCRCNSGLVQCHSVPVRSCSEPRCFNGGTCQQALYFSDFVCQCPDGFVGKRCDIDTRATCFEEQGITYRGTWSTAESGAECINWNSSVLSLKPYNARRPNAIKLGLGNHNYCRNPDRDLKPWCYVFKAGKYTTEFCSTPACPKGKSEDCYVGKGVTYRGTHSLTTSQASCLPWNSIVLMGKSYTAWRTNSQALGLGRHNYCRNPDGDARPWCHVMKDRKLTWEYCDMSPCSTCGLRQYKRPQFRIKGGLYTDITSHPWQAAIFVKNKRSPGERFLCGGVLISSCWVLSAAHCFLERFPPNHLKVVLGRTYRVVPGEEEQTFEIEKYIVHEEFDDDTYDNDIALLQLRSQSKQCAQESSSVGTACLPDPNLQLPDWTECELSGYGKHEASSPFFSDRLKEAHVRLYPSSRCTSQHLFNKTVTNNMLCAGDTRSGGNQDLHDACQGDSGGPLVCMINKQMTLTGIISWGLGCGQKDVPGVYTKVTNYLDWIHDNMKQ |  | significantly inhibit tumor cell growth
